Tests used:
[1] = biological target: T1, Recombinant Human DLL4 (Cat# 1506-D4/CF, R&D Systems) (human, UniProt Q9NR61 27-529); test: ELISA, DLL4 coated
T1 construct: Bought protein; also called rHuman DLL4; hDLL4

[2] = biological target: T2, recombinant human DLL4 (Cat# 1506-D4/CF, R&D Systems) (human, UniProt Q9NR61 27-529); test: ELISA, DLL4 coated, Fab 6.67 nM
T2 construct: Bought protein; also called hDLL4; rHuman DLL4
Procedure: (§1) The plate was blocked by adding 1% BSA in Tris-buffered Saline Tween (TBST) and incubating for 1 hour at room temperature followed by washing 2 times with 150 μl TBST. A Fab antibody was serially diluted in 1% BSA in PBS. A 50 μl aliquot of each serial dilution was added, in triplicate, to each well and the plate was incubated for 1 hour at room temperature followed by washing 2 times with TBST. 50 μl of either goat anti-human kappa HRP conjugated secondary antibody (Cat # A7164-1 mL, Sigma-Aldrich) or goat anti-human lambda HRP conjugated secondary antibody (Cat # L1645-1 ml, Sigma-Aldrich), diluted 1:1000 in 1% BSA in PBS, was added to each well and the plate was incubated for 30 minutes at room temperature followed by washing 3 times with 200 μl TBST. Finally, 50 μl TMB one-component reagent (Cat # TMBW-1000-01, BioFax) was added and allowed to develop for 2 minutes at room temperature. The reaction was immediately halted by the addition of 50 μl 0.5M H₂SO₄ and the absorbance at 450 nm was measured using an ELISA plate reader.

[3] = biological target: T2, recombinant human DLL4 (Cat# …); test: ELISA, DLL4 coated, Fab 20 nM
Procedure: as §1

[4] = biological target: T2, recombinant human DLL4 (Cat# …); test: ELISA, DLL4 coated, Fab 2.22 nM
Procedure: as §1

[5] = biological target: T2, recombinant human DLL4 (Cat# …); test: ELISA, DLL4 coated, Fab 0.74 nM
Procedure: as §1

[6] = biological target: T1, Recombinant Human DLL4 (Cat# …); test: ELISA, DLL4 coated, estimated from dose-dependent binding
Procedure: as §1

[7] = biological target: T2, recombinant human DLL4 (Cat# …); test: SPR (ProteOn), hDLL4 amine-coupled on chip
Procedure: In this example, the binding affinities of selected anti-DLL4 Fabs to recombinant human DLL4 (hDLL4, Cat# 1506-D4/CF, R&D Systems) were analyzed using Surface Plasmon Resonance (SPR) (Biosensor Tools, Salt Lake City, Utah). The Fabs analyzed include germline-derived antibodies and germline-modified DLL4 antibodies. Recombinant hDLL4 was immobilized on a SPR chip using amine coupling at three different surface densities. The Fabs were serially diluted 3-fold, with an initial concentration of 1 μM. Binding studies were run on a ProteOn system using a GLM sensor chip in 10 mM HEPES, pH 7.4, 150 mM NaCl, 0.01% Tween-20, and 0.1 mg/ml BSA at 25° C. The response data from each surface was globally fit to determine the binding constants.

[8] = biological target: T2, recombinant human DLL4 (Cat# …); test: ELISA, DLL4 coated, Fab 25 nM
Procedure: as §1

[9] = biological target: T2, recombinant human DLL4 (Cat# …); test: ELISA, DLL4 coated, Fab 12.5 nM
Procedure: (§2) In this example, an ELISA binding assay was used to assess the dose-dependent binding of Fab antibodies to recombinant human DLL4 and recombinant mouse DLL4.
as §1

[10] = biological target: T2, recombinant human DLL4 (Cat# …); test: ELISA, DLL4 coated, Fab 50 nM
Procedure: as §2, §1

[11] = biological target: T2, recombinant human DLL4 (Cat# …); test: ELISA, DLL4 coated, Fab 100 nM
Procedure: as §2, §1

| Binder | ELISA absorbance at 450 nm [2] | ELISA absorbance at 450 nm [3] | ELISA absorbance at 450 nm [4] | ELISA absorbance at 450 nm [5] | fold increased binding affinity against the antibody mutants with heavy chain H:APFF ALTH [1] | further results |
| --- | --- | --- | --- | --- | --- | --- |
| Fab H:APFF & L:NDH (Fab, V domains shown, Fab, kappa light chain; also called VH1-46_IGHD6-6*01_IGHJ1*01 S102A/S103P/S104F/H111F & L6_IGKJ1*01 S28N/S30D/S31H) VH: QVQLVQSGAEVKKPGASVKVSCKASGYTFTSYYMHWVRQAPGQGLEWMGIINPSGGSTSYAQKFQGRVTMTRDTSTSTVYMELSSLRSEDTAVYYCAREEYAPFSAEYFQFWGQGTLVTVSS VL: EIVLTQSPATLSLSPGERATLSCRASQNVDHYLAWYQQKPGQAPRLLIYDASNRATGIPARFSGSGSGTDFTLTISSLEPEDFAVYYCQQRSNWPPWTFGQGTKVEIKR | – | – | – | – | – | fold increased affinity against Fab mutant APFF (H:APFF & L:wt) [1]: 4 fold |
| Fab VH1-46_IGHD6-6*01_IGHJ1*01 S102A/S103P/S104F/H111F I51V/N52L/S54T/G56H & L6_IGKJ1*01 S28N/S30D/S31H S52L/A55G (Fab, V domains shown, Fab made in E. coli: VH on CH1 with His6 and Flag tags (Plasmid A), VL on kappa CL (Plasmid C); also called H: APFF VLTH & L: NDH LG) VH: QVQLVQSGAEVKKPGASVKVSCKASGYTFTSYYMHWVRQAPGQGLEWMGIVLPTGHSTSYAQKFQGRVTMTRDTSTSTVYMELSSLRSEDTAVYYCAREEYAPFSAEYFQFWGQGTLVTVSS VL: EIVLTQSPATLSLSPGERATLSCRASQNVDHYLAWYQQKPGQAPRLLIYDALNRGTGIPARFSGSGSGTDFTLTISSLEPEDFAVYYCQQRSNWPPWTFGQGTKVEIKR | 0.916 A450 | 1.06 A450 | 0.755 A450 | 0.397 A450 | – | – |
| Fab H:APFF VLTH & L:NDH LG (Fab, V domains shown, Fab, kappa light chain) VH: QVQLVQSGAEVKKPGASVKVSCKASGYTFTSYYMHWVRQAPGQGLEWMGIVLPTGHSTSYAQKFQGRVTMTRDTSTSTVYMELSSLRSEDTAVYYCAREEYAPFSAEYFQFWGQGTLVTVSS VL: EIVLTQSPATLSLSPGERATLSCRASQNVDHYLAWYQQKPGQAPRLLIYDALNRGTGIPARFSGSGSGTDFTLTISSLEPEDFAVYYCQQRSNWPPWTFGQGTKVEIKR | – | – | – | – | ~10 fold | – |
| Fab H:APFF ELTH & L6_IGKJ1*01 (Fab, V domains shown, Fab, kappa light chain; also called H:APPF ELTH; H:APFF ELTH & L:wt) VH: QVQLVQSGAEVKKPGASVKVSCKASGYTFTSYYMHWVRQAPGQGLEWMGIELPTGHSTSYAQKFQGRVTMTRDTSTSTVYMELSSLRSEDTAVYYCAREEYAPFSAEYFQFWGQGTLVTVSS VL: not shown | – | – | – | – | – | Kd [6]: 1 to 10 nM |
| Fab H:APFF G56A & L:NDH (Fab, V domains shown, Fab, kappa light chain) VH: QVQLVQSGAEVKKPGASVKVSCKASGYTFTSYYMHWVRQAPGQGLEWMGIINPSGASTSYAQKFQGRVTMTRDTSTSTVYMELSSLRSEDTAVYYCAREEYAPFSAEYFQFWGQGTLVTVSS VL: EIVLTQSPATLSLSPGERATLSCRASQNVDHYLAWYQQKPGQAPRLLIYDASNRATGIPARFSGSGSGTDFTLTISSLEPEDFAVYYCQQRSNWPPWTFGQGTKVEIKR | – | – | – | – | – | fold greater affinity against H:APFF & L:wt [1]: 8 fold |
| Fab VH1-46_IGHD6-6*01_IGHJ1*01 S102A/S103P/S104F/H111F I51V/N52L/S54T/G56H & L6_IGKJ1*01 S28N/S30D/S31H (Fab, V domains shown, Fab made in E. coli: VH on CH1 with His6 and Flag tags (Plasmid A), VL on kappa CL (Plasmid C); also called H: APFF VLTH & L: NDH) VH: QVQLVQSGAEVKKPGASVKVSCKASGYTFTSYYMHWVRQAPGQGLEWMGIVLPTGHSTSYAQKFQGRVTMTRDTSTSTVYMELSSLRSEDTAVYYCAREEYAPFSAEYFQFWGQGTLVTVSS VL: EIVLTQSPATLSLSPGERATLSCRASQNVDHYLAWYQQKPGQAPRLLIYDASNRATGIPARFSGSGSGTDFTLTISSLEPEDFAVYYCQQRSNWPPWTFGQGTKVEIKR | 0.776 A450 | 0.979 A450 | 0.608 A450 | 0.288 A450 | – | Kd [7]: 2.7 nM; koff [7]: 0.00113 s⁻¹; kon [7]: 430000 M⁻¹ s⁻¹ |
| Fab H:APFF LTH & L:NDH (Fab, V domains shown, Fab, kappa light chain) VH: QVQLVQSGAEVKKPGASVKVSCKASGYTFTSYYMHWVRQAPGQGLEWMGIILPTGHSTSYAQKFQGRVTMTRDTSTSTVYMELSSLRSEDTAVYYCAREEYAPFSAEYFQFWGQGTLVTVSS VL: EIVLTQSPATLSLSPGERATLSCRASQNVDHYLAWYQQKPGQAPRLLIYDASNRATGIPARFSGSGSGTDFTLTISSLEPEDFAVYYCQQRSNWPPWTFGQGTKVEIKR | – | – | – | – | ~10 fold | – |
| Fab H:APFF LTH & L:NDH LS (Fab, V domains shown, Fab, kappa light chain) VH: QVQLVQSGAEVKKPGASVKVSCKASGYTFTSYYMHWVRQAPGQGLEWMGIILPTGHSTSYAQKFQGRVTMTRDTSTSTVYMELSSLRSEDTAVYYCAREEYAPFSAEYFQFWGQGTLVTVSS VL: EIVLTQSPATLSLSPGERATLSCRASQNVDHYLAWYQQKPGQAPRLLIYDALNRSTGIPARFSGSGSGTDFTLTISSLEPEDFAVYYCQQRSNWPPWTFGQGTKVEIKR | – | – | – | – | ~10 fold | – |
| Fab H:APFF LTH & L:NDH LG (Fab, V domains shown, Fab, kappa light chain) VH: QVQLVQSGAEVKKPGASVKVSCKASGYTFTSYYMHWVRQAPGQGLEWMGIILPTGHSTSYAQKFQGRVTMTRDTSTSTVYMELSSLRSEDTAVYYCAREEYAPFSAEYFQFWGQGTLVTVSS VL: EIVLTQSPATLSLSPGERATLSCRASQNVDHYLAWYQQKPGQAPRLLIYDALNRGTGIPARFSGSGSGTDFTLTISSLEPEDFAVYYCQQRSNWPPWTFGQGTKVEIKR | – | – | – | – | ~10 fold | – |
| Fab VH5-51_IGHD5-18*01>3_IGHJ4*01 G100K/G104T & V3-4_IGLJ1*01 (Fab, V domains shown, Fab made in E. coli: VH on CH1 with His6 and Flag tags (Plasmid A), VL on lambda CL (Plasmid E); also called H: KT & L: wt) VH: EVQLVQSGAEVKKPGESLKISCKGSGYSFTSYWIGWVRQMPGKGLEWMGIIYPGDSDTRYSPSFQGQVTISADKSISTAYLQWSSLKASDTAMYYCARRKYSYTYDYFDYWGQGTLVTVSS VL: QTVVTQEPSFSVSPGGTVTLTCGLSSGSVSTSYYPSWYQQTPGQAPRTLIYSTNTRSSGVPDRFSGSILGNKAALTITGAQADDESDYYCVLYMGSGISYVFGTGTKVTVL | 0.042 A450 | 0.018 A450 | 0.014 A450 | 0.019 A450 | – | ELISA absorbance at 450 nm [8]: 0.16 A450; ELISA absorbance at 450 nm [9]: 0.18 A450; ELISA absorbance at 450 nm [10]: 0.18 A450; ELISA absorbance at 450 nm [11]: 0.18 A450 |
| Fab VH5-51_IGHD5-18*01>3_IGHJ4*01 G100K/G104T S28R & V3-4_IGLJ1*01 (Fab, V domains shown, Fab made in E. coli: VH on CH1 with His6 and Flag tags (Plasmid A), VL on lambda CL (Plasmid E); also called H: KT S28R & L: wt) VH: EVQLVQSGAEVKKPGESLKISCKGSGYRFTSYWIGWVRQMPGKGLEWMGIIYPGDSDTRYSPSFQGQVTISADKSISTAYLQWSSLKASDTAMYYCARRKYSYTYDYFDYWGQGTLVTVSS VL: QTVVTQEPSFSVSPGGTVTLTCGLSSGSVSTSYYPSWYQQTPGQAPRTLIYSTNTRSSGVPDRFSGSILGNKAALTITGAQADDESDYYCVLYMGSGISYVFGTGTKVTVL | 0.003 A450 | 0.009 A450 | 0 A450 | 0 A450 | – | ELISA absorbance at 450 nm [8]: 0.2 A450; ELISA absorbance at 450 nm [9]: 0.18 A450; Kd [7]: 114 nM; koff [7]: 0.0845 s⁻¹; kon [7]: 740000 M⁻¹ s⁻¹; ELISA absorbance at 450 nm [10]: 0.23 A450; ELISA absorbance at 450 nm [11]: 0.26 A450 |
| Fab VH5-51_IGHD5-18*01>3_IGHJ4*01 G100K/G104T G24T/S28R/G35V & V3-4_IGLJ1*01 M94R/S96M (Fab, V domains shown, Fab made in E. coli: VH on CH1 with His6 and Flag tags (Plasmid A), VL on lambda CL (Plasmid E); also called H: KT TRV & L: RM; KT TRV-V3-4 RM) VH: EVQLVQSGAEVKKPGESLKISCKTSGYRFTSYWIVWVRQMPGKGLEWMGIIYPGDSDTRYSPSFQGQVTISADKSISTAYLQWSSLKASDTAMYYCARRKYSYTYDYFDYWGQGTLVTVSS VL: QTVVTQEPSFSVSPGGTVTLTCGLSSGSVSTSYYPSWYQQTPGQAPRTLIYSTNTRSSGVPDRFSGSILGNKAALTITGAQADDESDYYCVLYRGMGISYVFGTGTKVTVL | 0.062 A450 | 0.122 A450 | 0.028 A450 | 0.006 A450 | – | Kd [7]: 40.3 nM; koff [7]: 0.101 s⁻¹; kon [7]: 2.53e+06 M⁻¹ s⁻¹ |
